This is an account of results in publication PMC5606208 (Nature, 2017).

Broadly, the stoichiometry N is a count of units in the complex or per binding partner.

The data set “AUC” deals with the molecule itself. The experiment in a line: AUC.
The data set “SEC-MALS” deals with the molecule itself. In words: SEC-MALS. (Size exclusion chromatography separates by hydrodynamic size, large species first.)

B1: PhosNH-α/βchimera (N-terminus and Hinge from HP1α with the Chromodomain, Chromoshadow domain and CTE from HP1β, phosphorylated) (other, human)
chain: GKKTKRTADSSSSEDEEEYVVEKVLDRRVVKGKVEYLLKWKGFSDEDNTWEPEENLDCPDLISEFMKKYKKMKEGENNKPREKSESNKRKSNFSNSADDIKSKKKREQSNDIARGFARGLEPERIIGATDSSGELMFLMKWKNSDEADLVPAKEANVKCPQVVISFYEERLTWHSYPSEDDDKKDDKN
modifications: phosphorylated NTE (fully phosphorylated, sites not given)
B1: the binding result in “AUC” is recorded as “binds”.

B2: nPhos-HP1α (HP1α S92A, S95A, S97A co-expressed with CKII, phosphorylated only in the N-terminal extension) (natural protein, human, UniProt P45973 1-191, looked up)
chain: MGKKTKRTADSSSSEDEEEYVVEKVLDRRVVKGQVEYLLKWKGFSEEHNTWEPEKNLDCPELISEFMKKYKKMKEGENNKPREKSESNKRKANFANAADDIKSKKKREQSNDIARGFERGLEPEKIIGATDSCGDLMFLMKWKDTDEADLVLAKEANVKCPQIVIAFYEERLTWHAYPEDAENKEKETAKS
modifications: phosphorylated at Ser11, Ser12, Ser13, Ser14 (NTE); 8 phosphates per dimer by native MS
On to B2, for which, in the data set “SEC-MALS”, the “stoichiometry N” value is 2.
